Measured values reported in paper PMC8608356.

Columns and labels:
Test in all cases: BLI
Settings in all cases: biotinylated; BLI (BLItz): 20 mM Tris-HCl pH 7.4, 80 mM NaCl, 20 mM KCl, 1 mM DTT, room temperature; […] (Triton X-100, Tween-20)
[1] = test system: CCHFV N protein stalk domain (Crimean Congo Hemorrhagic fever virus strain 10200?)
[2] = test system: CCHFV nucleocapsid (N) protein, wild type (Crimean Congo Hemorrhagic fever virus strain 10200)
[3] = test system: CCHFV nucleocapsid (N) protein, wild type (Crimean Congo Hemorrhagic fever virus strain 10200); remark: listed apart in the source
[4] = test system: CCHFV N protein stalk domain (Crimean Congo Hemorrhagic fever virus strain 10200?); remark: listed apart in the source
[5] = test system: CCHFV nucleocapsid (N) protein, wild type (Crimean Congo Hemorrhagic fever virus strain 10200); remark: listed apart in the source

CCHFV S-segment mRNA 5' UTR gave a Kd [1] of 0.0367 µM, a Kd [2] of 0.0373 µM and a Kd [3] of 0.067 µM. For the same substance, the Kd [4] was 0.054 µM and the Kd [5] was 0.054 µM.
